Laboratory results reported in article doi:10.1101/2021.07.23.453482 (bioRxiv, 2021).

B1: BT3057^4S-Gal/GalNAc (enzyme, Bacteroides thetaiotaomicron, UniProt Q8A397 1-508, looked up)
chain: QERPNIIVFLVDDMGLMDTSVPFIADESGQPVRHPLNDWYHTPNMERLAKQGICFSTFYAQSVSSPSRASIMTGQNATRHGVTNWINAESNNRNPFGPPQWNWKGLRKDMPTMPRVLQQAGYKTIHVGKAHFGCMGSEGENPLNIGFDVNIAGSGIGHPGSYYGEWGYGHIKGQKIRAVPDLEKYHGTDTFLSEALTIEANREITKAVEEKRPFYLNMAHYAVHSPFQADKRFLSRYTDPDKNEQARAFATLIEGMDKSLGDIMDQLEKLGIAENTLILFLGDNGGDAPLGDERGYGSSAPLRGKKGTEFEGGMRVPFIAAWAKPEKKSKVQKNLPIEVGSMQTQLGTIMDIYPTVLSVAGCEVPQNYVIDGFDLKKQLSGKVDKKRPESFLMHFPHAHRGSYFTTYRMGDWKLIYYYLPETPKQPKALLYNLKDDPEERNELSAAHPDQCREMIREMSARLEKEGALYPVDKQGNELKPFVYF
B2: BT3796^4S-Gal/GalNAc (enzyme)
chain: QTQKSAQTQRVDKRPNIILFMVDDMGWQDTSLPFWTQKTDYNKLYETPNMERLAKQGMMFTQAYASSISSPTRCSLITGTNAARHRVTNWTLQKNTKTDRKDKVLDVPDWNYNGVSQVPGTNNTFVGTSFVQLLKDSGYHTIHCGKAHFGAIDTPGEDPHHWGFEVNIAGHAAGGLASYLGEENYGHNKDGKPISLMAVPGLEKYWGTETFVTEALTLEAIKALNKAKKYNQPFYLYMSQYAIHVPLDKDKRFYDKYKKKGMTDHEAAYATLIEGMDKSLGDLMDWLEKSGEADNTIIIFMSDNGGLAAESYWRDGKLHTQNHPLNSGKGSTYEGGIREPMIVSWPGVVAPGSKCNDYLLIEDFYPTILEMAGIKKYKTVQPIDGISFMPLLKQTRNPSKGRSLFWNMPNNWGNDGPGINFNCAVRKGDWKLIYYYGTGKKELFNIPDDIGESNDLSAQHPDIVKRLSKELGTYLRKVDAQRPTVKATGKPCPWPDEIK

Target: the molecule itself
Assay: SEC-MALS

Protein | stoichiometry N
B1 | 2
B2 | 2
